The nature of the series: label from the status in PepcDB records.
Turning to “LNTAPIFMPNTVGGYFPGPRTFPGNKKILYNSSTMVKALSRGYVVVSAGLRGRTLTNEKGEFIGKAPAFIIDMKAAIRYIKFNKDNFPGDVNKIITNGTSAGGAISALIGASGNNVFFEKELDEIGAADSSDNIFAVSAYCPIHNLENADAAYEWQFNGINDWHTQKIDIKNGKAEFSPLNGQLNELEKQLSSKLKNQFIEYLNSLRLRNPDGDYLTLNKIGEGNFLDLTKKFLIKSAQTEIEKGNELNNPNFLDIRNGKVVSLKWKAYLRYITRMKKVPAFDDLGLNNPENDLFGDIKIKAKHFTEIGQKYSEKTAKKADPELVTAINPLNYLNNQSNSLIAKHWRIRHGAADRDTSFAVPIILATTLQNMNLDIDFFMPWAKPHSGDYDLIDLFDWIDSLVKEK”, the protein production result is reported as “failed”.
As for “MTLSFFRPRARKVTAAVLLMTWLAPVSPLALAQPASVPAAPAGAAAAEQVQSNLNRSVQIGRQSPYLQKDATIIDAPTYELPDMGDPSTAALSPEMERRLGDRVMRQIRRDPDYVPDPLLSDYLNDIGYRLIEAARRQHVAGSTSASSFELFAVRDPGINAFALPGGYIGVNTGTLVATESESELASVLGHEIGHVLQRHIARGIDKSGESMWIALASILLAGLAATKSGDAAQALAVGGQAAAVSNQLAFSRGAEREADRVGFTLLTGAGYNPDGMPDFFRRLQRVSSIADTGAVPGYARTHPLTGERIADMEDRARGLPHPRQPQRPAFGFAKARARVLQETSTSAYLDVRNAMRSQLASAPDAPAEKRAALWYGIAVAEQLAGQLDPAEQALLEARRLYGNIPGLTSGSPSLDVTAIELARARNRVPEALTMARAALAAYPLSRAVGITYAQTLLAAGRAGDAIPYLQDKAREDTAQPIWWDMLARAYADQGKRVEQHRALAEKYARDGAWGAAVEQLKLARDAGDADFYTLSEVDARLHQMERQYREEKQEEKALPK”, the entry is “failed”; as for “DSIVEGRTLNVAVSPASPPMLFKSADGKLQGIDLELFSSYCQSRHCKLNITEYAWDGMLGAVASGQADVAFSGISITDKRKKVIDFSEPYYINSFYLVSMANHKITLNNLNELNKYSIGYPRGMAYSDLIKNDLEPKGYYSLSKVKLYPTYNETMADLKNGNLDLAFIEEPVYFTFKNKKKMPIESRYVFKNVDQLGIAFKKGSPVRDDFNLWLKEQGPQKISGIVDSWMK”, “not failed”; as for “MIHITSQACFLWHTTINKICNRPMFNPLTIRFWGVRGSIPCPGSHTVRYGGNTPCVEIQANGQRIILDGGTGLRVLGEHLMGQQPVTAHLFFTHTHWDHIQGFPFFQPAFVPGNQFHIYAVPGKNGQGIERRLNDQMLHPNFPVPLQIMGGDLRFYDLEVGERVHLGDGVVVSNEALNHPGGGVGYRVSWQGIHVAYITDTEHLPDRLHPGAFALADHADVMIYDATYTDEEYYHPQQSKVGWGHSTWQEAVKLAQAAQVKQLILFHHDPSHDDDCLDRIGELARAQFPQTLLAREGLIISVYPNVIHFPATPQASLEHHHHHH”, “failed”.
On to “MSLDCRVRESIQEEAKGIVAPPELKEKVIVQIKMNQGGRKRKKRLIAGVLAAAFLIPTTGFAYQSIMADGIYGSFENLKKHAGTMTLEAYMRFSAKLSEAKDEMGTKEYEVFTKELKKLTNAKLAYGDSNGNIDYDALSSEKREEMKKVSMGLQPYFDKLNGHKSSKEVLTQEEFDRYMEALMTHEIVRVKTKSTGAIKVEEIPEAYKERFIKAEQFMEYVDEKVR”, for which the protein production entry is recorded as “not failed”.
In the case of “KREHFRDDYLYRFYQYGDTHSKIPSNLYKVLARKLDMISASENINDLRSPPANHLELLEPKENKIYSIRVNKQYCLIFKYENNEVNNLYLDPH”, the protein production result was “failed”.
As for “MSVYLVALIGILILGLYILDLRKHKITTREIIMIGLSVAISYVLYMIPLVRYPQGGGITFFSMLPIMLLSLVYGRTVGVTGGLIFGLLKILNGAFIVHPVQFLLDYILSNMALGLAGSFGIDKKYKIFLGSLMAGSISTFVSIVSGVIFFGQYAPPGMNLWIYSIIYNTSSAGVESLLTAIVITIMPIKMLAKRMKPINNI”, the entry is “failed”; as for “MNIEDDENKEKKETCLSYIKKINMSEIINDEAIGKRAEYLWNLALSAVYINVKLSMKYITLIKKITKNNLLFDNICCHYCNLIYIPFYNCKITHSPNQGKATYTCLLCKRKKKINLQHLSKHKNIYPLKHSDKHKPSTSNLSNVNFFLINEIDNYEIKKNNVPLNKDDTSNTENQLITKQENKNEDTLKDVSCADMQKEEHIINQDNIINQDNIINQDNIINQDNIINQDNIINQDNIINQDNIINQDNIINQDNIINQDNIINKNDMYQNLSYLFRIDYGINKDDTQKGNEIYDKSIVNESEKCKSVHIENNKNDDNKNMNSESKNIKNERKRKSQNNNIAQNKNQGFPNVNMNDGFLNFNKSKKKKGKSILDIL”, “failed”; as for “MSLFKRSVVSEITSHAGVVFSTLVVVWLSVLLVRLLGEAAGGSIGADVVLGLAAFSTITALPTILAVSLFIAVLTTVTRNYRESEMVVWFASGLSLADWLRPVARVAVPIAMLVAALTLVASPWAYRQIGEYRERFEQRSDLSKVTAGQFAESGRGDRVFFAEDPVRPGDELGAVFARSIDPEWLSVLTASNARSETLPNGDRFLVLGEGHRYDLKPGTPEIRLVNFDQYGVRLESKAGEDPMAEARAAAERFSKARSTMQLVQDNTDSSWSQIMWRVAMPLAALNLALLAIPLGAVNPRLGRSGDLLIAGLVGLLYMNMINLSRAWISSGKISFSIGVWAVHAVVALLAAYLLMRRLRVKAPRNAGRGA”, “failed”.
Regarding “MNTKNLVFVALFSSIMGVLGLIPPIALSITPVPITLQSLGVMLAGGLLGSRLGALSQLIFLLIVGVGAPLLAGGRGGLGVFVGPSAGYLLGYIIGAFVIGYLIERLREVSIIKVLCINIIGGIFVVYVFGITVQAFLMDVSVWETMKVSAVFLPGDCIKAIIAAVLVTKLHRSLKHIITPALKNGKYTNAG”, the protein production entry was “failed”.
On to “MRTSNPMLKKEAFRKEGASASAMTIGGTVGKTFIMLILLLATSVYSYIQMMQGTMKMPVLIGALIVAAIIAFASMFFPRISPFGAPIYAAVEGVVLGSISAVYTMKFGDSIVLNAVLLTISILFAMLVLYATRVVKVTDKFRTGVMAATLGIMVMYLVVFLLNMFGVTVPYIHQGGTIGIIISAVVIVVAALNLLLDFDLIENGVRSQAPKYMEWYTAMGLMLTLVWLYLEILRFVSYFTKND”, for which the protein production entry is on record as “not failed”.
Regarding “MKTVKDAEIFCQYIAHEYLGKRNYKLLEDIIDKRITIIGTGAHEVSRNIQELMTALNKEAELWDGTFIIEDEWYQGTELADNLFVVIGQIEGRQNSNDQLVYSFSSRVTFIIEYHDMQWKIIHVHQSVPDYSQGDDEFFPQRIVEESNAQLKKEIAEKTKELEMSNQQVIYNLRHDYLTGILNRPSLEKEVTEAMSNHQYGVILVLDIDYFKEVNDNNGHPYGDEVLIKLANTMQESFKSGICGRIGGDEFIIYLALDDANYDAIEKTIKEFKQNWQKNITTIDRSSTITLSIGGAYYPKHGKNYQELWSNADKALYLSKNNGRNRISIYQL”, the protein production result is reported as “failed”.
As for “MSRRAGHNGRPLLEVPMLLRGLTWLVLFQLLGTGLNVLLLPMLPGPIIGLVLLFGYFLARGEVGKPVNEAAGSLLRYLPLLLVPAAVGVMAYAREIAADFWAIVGALVLSLLLSFLFAGWMMQKLIDRQQRRREES”, the protein production entry is reported as “failed”.
To “MTEINLLQPMHASTKRDYVQRVVEHDKAESAAVARQWGRDYWDGDRRYGYGGYRYDGRWRPLAQTLIDRYGIKPGMSVLDVGCGKGYLLYEFTQLVPDLTIAGIDVSEYGIANAKEDVRPQLRVGSAVELPYPDHSFDLVVSLGVLHNLPLEDVFRAVSEIERVGRGASKYLMVESFRNEREKANLLYWQLTCLSFHGPDTWAWIYDKCGYRGDHGFIFFE” belongs “failed”.
Take “MIIRIKHYGEVKIEDSKNLLLNLIENRIGIDNICNGKGTCGKCKVRFRQGVPEATSADLRYLSVEELEEGVRLACQVKPQKGMEIDVTLSNSFDRKNTVLEHHHHHH”: the protein production result is recorded as “failed”.
Take “GNSKSRNDRTETVDKEVIKAPEFDADSAYQYIQVQADFGPRVPNTQAHKECGEYLAGQLEKFGAKVYNQYADLIAYDGTILKSRNIIGAYKPESKKRILLCAHWDSRPYADNDPDPKNHHTPILGVNDGASGVGVLLEIARQIQKEQPALGIDIVFFDSEDYGIPEFYDGKYKQDTWCLGSQYWARTPHVQNYNARYGILLDMVGGKDATFYYEGYSARTARSEMKKIWKKAHELGYGKYFVKEDGGETVDDHIYVNKLARIPCVDIINYDAGNPQSSFGSFWHTVNDTMENIDRNTLKAVGQTVMDVIYNEK”: the protein production entry was “not failed”.
“AGKQNEVELVAEKQLAFPLDEQTYYLSKSMFQFEENGKEYLHFENTQKSLYDIVIFDIENQQIAKRIPLHKTGPNGLPAVFGSRPSPDSQYILVAQNNISRLSSINSQGEIIRNYNFQTPEGRFTPLSFGSYYNAPAFIKDSCIFLRQEILKPDMKKEDWPRTHMFASQDLRTGEVKWIPIFYPPIFKEEYDNIAGGYGFSYDYNYKESRLVCGFFGYDSLMVTDDLKHIRWYNAKSRYLKSMKPKLGNSMEGINAIIKLNENPRYWHIMYDKYRNVYYRFAEMPYKLAPNESPYETPKGKEFSVIVLNADFEIIGETKFPGKKYFYKMSFVGREGLYISENNLENPQFDENKLVFTCFKIKNASPNK”: the protein production entry was “not failed”.
As for “MEGALAANWSAEAANASAAPPGAEGNRTAGPPRRNEALARVEVAVLCLILLLALSGNACVLLALRTTRQKHSRLFFFMKHLSIADLVVAVFQVLPQLLWDITFRFYGPDLLCRLVKYLQVVGMFASTYLLLLMSLDRCLAICQPLRSLRRRTDRLAVLATWLGCLVASAPQVHIFSLREVADGVFDCWAVFIQPWGPKAYITWITLAVYIVPVIVLATCYGLISFKIWQNLRLKTAAAAAAEAPEGAAAGDGGRVALARVSSVKLISKAKIRTVKMTFIIVLAFIVCWTPFFFVQMWSVWDANAPKEASAFIIVMLLASLNSCCNPWIYMLFTGHLFHELVQRFLCCSASYLKGRRLGETSASKKSNSSSFVLSHRSSSQRSCSQPSTA”, the protein production result is “not failed”.
Take “MLKERAGAVSAGLRALDLALVAAAFGLALALRAAVDVPAVPPLLPAGRHLAWLAVALALWPAAAGAAGVYGQYRTRSRREEILRLARAVGLLALGVAAASFLGRDRDLSRLLLLGWNGIALVLLAGSRVAVRTLAHEARRRGHNTRAFAVVGSGPMARAMRQRLLARPEWGFTFAGFVLEEGAPRRGIPGPVLGRVDELAAVLERYVVDLVVFAVPRDRLPGMEAAVAACQEQGVVAKIGLEPFPPRHGRLTVEDLDGIPVLSYASAPQDALPLLAKRAIDVVASALALVVLSPLLAAVALAVRLDSPGPVLFRQRRVGLSGRTFTLYKFRSMRAGAEAEQARLADRNEMDGPVFKLRDDPRVTRVGKVLRRTSLDELPQLWNVLRGEMSLVGPRPPLPDEVRRYERWQRRRLSVKPGLTCTWQVSGRSEVGFGRWMQLDLDYIDRWSLWQDVRIVLRTIPAVLLGRGAR”: the protein production entry is recorded as “failed”.
Take “MSLVNLTINGKHVSAPSGTSILDAAKLINIKIHNLCHLHMNEIDKLDTCASCRVCMVETERGLVPACGTVIKEGMKVQTNSAKALNARRTIVELLLSDHPQDCFVCEKNGDCELQTIAADLGVRKIRYQGSKSFAGKDTSTKSLVKDHSKCILCRRCETVCNDIQTVGALSGVNRGFNTLVSTFFNSDMVETECTFCGQCISVCPTGALTEVDNVPKLWDVLNKKEKTIVVQVAPAVRVAIGEEFGLEPGSISTGKMVAALKALGFEHVFDTNFGADFTIMEEATEFIERIQKGENLPILTSCCPAWVNFLEHNYPDKLNLASSCKSPQGMFGSIAKNYYAPKILGINPEELYVVSVMPCVAKKYEASREELSESGILDVDLSITTRELAKMIKEAAIDLPNLQDQDFDNPLGKSTGAASIFGASGGVLEAALRTSYEKITNKTLDNVNFTNVRGLKGIREASIDVDGTTVNVCIVNTLKNARKIMDKVRSGECKYHIIEVMACPGGCVGGAGQPYHHGNTEIVDRRANALYEIDRNKAIRKSHENPDLQAIYKDFFGEPNSDVAHKYLHTHYFDKSCVYGECPQECACEEAK”: the protein production entry was “failed”.

Values taken from a protein production outcome set (Wang et al. 2014).
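Also: failed if final PepcDB status was selected cloned or expressed and not failed if soluble or beyond.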
